Test results reported in the supplement of paper PMC12042874.
± gives the uncertainty stated by the source.

test: amyloid nucleation score (Sup35N fusion, yeast selection) (log enrichment); library NNK2; higher = more nucleation; inactive = no reads after selection
Procedure, shortened: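 Growth for 7 days at 30°C on medium lacking adenine and uracil followed a 24-hour induction with 100 μM copper sulfate of psi-negative yeast expressing peptides of 20 random codons fused to Sup35N. Input and output plasmid inserts were sequenced with Illumina, and sequences with under 100 input reads were excluded. Nucleation score is the DiMSum log enrichment of output over input reads, centred on the mode score of non-aggregating sequences.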

Substance | amyloid nucleation score
VMARYMFVK | 0.064 ± 0.65
VMCFVDRDRFCNLFKLCLEF | -1.45 ± 0.49
VMFTGHCVTRNDRDRLVLTY | -0.522 ± 0.76
VMRAMFSRAPFGPRNSSPLN | 0.417 ± 0.37
VMRRVVKKQSWYLIKGLSM | 0.802 ± 0.32
VMSFHWCVVSSVPWDCQACH | 3.93 ± 0.1
VMVDMGGWHEAWLVTSIRWS | 0.889 ± 0.3
VMYRCSRSALNLHVRRNWRW | 0.455 ± 0.65
VNFNMALDNYFSNFEYRVRN | -1.17 ± 0.35
VNFNQSRCVDYVGILVIGG | -0.248 ± 0.28
VNGWDWQRYLRILKCFVVY | 0.615 ± 0.36
VNIERGFLRLKRLD | -0.316 ± 1.1
VNKSSERNESIGRFRTCYRR | 0.345 ± 0.8
VNNGLPDCFSLRYAVHPMRL | -0.526 ± 0.64
VNNGSMFSRGDWCVVLYPTW | 3.45 ± 0.077
VNQFNVIIKD | 3.33 ± 0.1
VNSEPDTLEGNENWYMGTRC | -0.125 ± 0.49
VNTSFATFSSVSLEGLLSMV | -0.595 ± 0.3
VNVEYSSMHKLCAW | 0.201 ± 0.46
VNVGKCNRTVGIWLLWKVNA | 0.584 ± 0.44
VPLGECIPNFLSTYGGYVVS | -0.287 ± 0.33
VPNYLCGDTLPEYYETPPDH | 0.224 ± 0.4

Substance | amyloid nucleation score
VPRKILFCLLACCRMRQACS | 0.67 ± 0.33
VPSQRNWFC | 0.007 ± 0.63
VPSSEYFIVFVCRPLLIVSL | inactive
VPSTIWMTR | 0.585 ± 0.38
VPWSLGLCSIFRSFK | 2.38 ± 0.16
VQNLMYIVISPFDRYGRCGR | 9.735 ± 0.048
VQPYSILNFRMELKANRLEL | 4.4 ± 0.052
VQVVLNSETSSCASLRCMTY | 8.047 ± 0.029
VRANLGAGFRFKSETGDAS | 0.861 ± 0.14
VRFKYIYHTGLDDVAVNQY | -0.487 ± 0.55
VRFNGLVR | inactive
VRITVSSSLALWLVWLSHYR | -0.167 ± 0.27
VRKGHPYALELLSCYVGCQP | 1.18 ± 0.25
VRKSHS | 0.308 ± 0.42
VRLLMKLYNVPWVFH | inactive
VRLRGYSR | -0.439 ± 0.39
VRMSLTLSFQVLAYWEGFIK | -0.64 ± 0.49
VRRYYDSKSSIAYMLSIRVD | -0.447 ± 0.27
VRSGTLFARTKWEESSCHLF | 0.641 ± 0.4
VRSVGGTLASPWRAYGC | 0.527 ± 0.57
VRSYNVKYCSRRNLICGDG | -0.019 ± 0.41
VRTPEYSLHLVAS | -0.02 ± 0.61

Substance | amyloid nucleation score
VRWFCSVISF | 2.39 ± 0.14
VRWMITHNFRVF | inactive
VRWTRFQALLYLK | inactive
VSASEEVPAFCCVTVAQ | -0.195 ± 0.61
VSEMPLLYR | 0.769 ± 0.53
VSEWFGTKGWRLDYLCLYWL | -1.03 ± 0.64
VSFATRRSSNNILTGW | -0.557 ± 1.1
VSFKTSGKLCTAWFVWGLF | -0.108 ± 0.34
VSFSSNHGFAMVRLSWSQKR | 5.49 ± 0.058
VSGCV | -0.865 ± 0.54
VSGDRLPSLFTCVRLLI | 0.492 ± 0.41
VSIYLG | 2.72 ± 0.15
VSKSFWGMGWSLRYSGFSRV | -0.262 ± 0.41
VSLKFLQGGAKDLRWSCGGE | 1.78 ± 0.23
VSLRYRKRQWCYRVKWSITD | -1.36 ± 0.48
VSMAIFGSSNILYSIRSLLE | 4.37 ± 0.082
VSMEKVRSDGMDRFASGFAA | 0.361 ± 0.29
VSMRMVHGDYKWGRGCLIWI | -0.196 ± 0.45
VSNCLQGLYFCWSTGSRSRI | 6.796 ± 0.03
VSNPSGVREPATTGGQSLAI | 0.966 ± 0.47
VSRAFNFSRCRRKISPALQC | 0.135 ± 0.33
VSRDIIKKVSASNRSMVSDS | 0.163 ± 0.56

Substance | amyloid nucleation score
VSRKV | 0.476 ± 0.23
VSRSSRWYNRIGMVRSVWNK | -0.139 ± 0.21
VSSLMMVGNRFLIISWTESV | 2.55 ± 0.092
VSTKVGSSYEVVGYKVSHFG | -0.291 ± 0.76
VSVGWRVAVWWILKWEHLSR | 9.541 ± 0.034
VSVHAVGLSYCMICFSLQNG | -0.611 ± 0.23
VSYDSNAILTFVNSYSRRRL | 1.48 ± 0.19
VSYDVNIFWYPKKMS | inactive
VSYTHTETTPGLTSLWLVLM | 6.89 ± 0.077
VSYVDESHFVNTKSDMPSVS | -0.392 ± 0.63
VTCNPHGLSHD | inactive
VTDCMSVRITLLMCSHGFKH | 7.302 ± 0.063
VTGRAFNVTHGDAVEI | 0.299 ± 0.39
VTIER | 0.319 ± 0.33
VTIGLNDFLTWDRWFYVFYG | -0.873 ± 0.25
VTIYRGVRFGTFLPCRVRYG | 1.48 ± 0.26
VTKHLGEARKLVLDQRLHWG | 5.601 ± 0.047
VTKSRRFSFLYYVESLHNRC | 4.25 ± 0.048
VTLGVWRPAFFAFWTPRKQY | -0.35 ± 1.1
